doi:10.1101/751404, “HOPS recognizes each SNARE, assembling ternary trans-complexes for sudden fusion upon engagement with the 4th SNARE” (bioRxiv, 2019)

Molecular target: T1, Qa-SNARE Vam3, full-length, wild-type (S. cerevisiae, UniProt Q12241 1-283)
T1 construct: Vam3, vacuolar Qa-SNARE, S. cerevisiae, full-length wild type with its transmembrane domain (residues 265-283); also called GST-Qa; source: isolated as described (Mima et al., 2008; Schwartz and Merz, 2009; Zucchi and Zick, 2011), reconstituted into proteoliposomes
T1 sequence (looked up): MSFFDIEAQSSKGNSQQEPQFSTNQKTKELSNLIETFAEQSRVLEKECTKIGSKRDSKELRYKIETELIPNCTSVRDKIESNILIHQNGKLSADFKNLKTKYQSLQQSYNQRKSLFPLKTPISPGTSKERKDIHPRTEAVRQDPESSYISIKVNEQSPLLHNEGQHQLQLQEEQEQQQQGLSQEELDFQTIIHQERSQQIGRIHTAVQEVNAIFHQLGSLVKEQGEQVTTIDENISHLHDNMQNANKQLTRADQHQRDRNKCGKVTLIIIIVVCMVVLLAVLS
Assay: co-IP; proteoliposomes with Ypt7 and R mixed with proteoliposomes with Ypt7, Qa and Qb, with or without 50 nM HOPS and 4 μM Qc, 33 min; solubilised in modified RIPA buffer with 5 μM GST-R; anti-Qa antibody and protein A magnetic beads, 4°C, 2 h; immunoblot with antibodies to R, Qa and Vps33
Conditions: both partners purified

B1: R-SNARE (Nyv1), full-length, wild-type (natural protein, S. cerevisiae, UniProt Q12255 1-253, looked up)
chain: MKRFNVSYVEVIKNGETISSCFQPFQKNENYGTITSANEQITPVIFHNLIMDMVLPKVVPIKGNKVTKMSMNLIDGFDCFYSTDDHDPKTVYVCFTLVDMPKILPIRILSGLQEYESNATNELLSSHVGQILDSFHEELVEYRNQTLNSSGNGQSSNGNGQNTISDIGDATEDQIKDVIQIMNDNIDKFLERQERVSLLVDKTSQLNSSSNKFRRKAVNIKEIMWWQKVKNITLLTFTIILFVSAAFMFFYLW
notes: Nyv1, vacuolar R-SNARE, S. cerevisiae, full-length wild type with its membrane anchor; source: isolated as described (Mima et al., 2008; Schwartz and Merz, 2009; Zucchi and Zick, 2011), buffer exchanged into β-octylglucoside, reconstituted into proteoliposomes
binding result: binds
